# T1: MCM5 (human, UniProt P33992 1-734)
# T1 construct: MCM5, human; Stood in the structure as a subunit of m1; source: Hi5 insect cells, purified as a subunit of hsCMG
# T1 sequence: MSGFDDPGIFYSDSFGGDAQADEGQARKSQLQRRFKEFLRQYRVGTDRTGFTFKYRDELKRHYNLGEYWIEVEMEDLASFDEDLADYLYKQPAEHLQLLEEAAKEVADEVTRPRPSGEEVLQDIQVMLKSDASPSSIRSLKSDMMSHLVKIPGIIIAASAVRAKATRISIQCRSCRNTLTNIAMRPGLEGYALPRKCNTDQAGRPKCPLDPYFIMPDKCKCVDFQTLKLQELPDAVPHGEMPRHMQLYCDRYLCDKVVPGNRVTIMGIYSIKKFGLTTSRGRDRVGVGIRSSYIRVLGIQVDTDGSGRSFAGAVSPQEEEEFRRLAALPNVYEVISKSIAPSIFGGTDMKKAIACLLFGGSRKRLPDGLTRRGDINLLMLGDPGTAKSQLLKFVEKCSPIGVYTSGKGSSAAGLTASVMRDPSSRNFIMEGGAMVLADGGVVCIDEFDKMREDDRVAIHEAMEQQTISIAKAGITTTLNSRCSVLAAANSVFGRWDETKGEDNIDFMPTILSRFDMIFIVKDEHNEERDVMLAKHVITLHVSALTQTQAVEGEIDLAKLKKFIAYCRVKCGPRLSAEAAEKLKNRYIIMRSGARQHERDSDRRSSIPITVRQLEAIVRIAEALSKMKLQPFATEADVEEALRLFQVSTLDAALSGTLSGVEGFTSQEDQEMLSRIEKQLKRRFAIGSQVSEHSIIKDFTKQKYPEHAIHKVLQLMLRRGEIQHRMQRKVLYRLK
# B1: POLE2 (natural protein, human)
# chain: MAPERLRSRALSAFKLRGLLLRGEAIKYLTEALQSISELELEDKLEKIINAVEKQPLSSNMIERSVVEAAVQECSQSVDETIEHVFNIIGAFDIPRFVYNSERKKFLPLLMTNHPAPNLFGTPRDKAEMFRERYTILHQRTHRHELFTPPVIGSHPDESGSKFQLKTIETLLGSTTKIGDAIVLGMITQLKEGKFFLEDPTGTVQLDLSKAQFHSGLYTEACFVLAEGWFEDQVFHVNAFGFPPTEPSSTTRAYYGNINFFGGPSNTSVKTSAKLKQLEEENKDAMFVFLSDVWLDQVEVLEKLRIMFAGYSPAPPTCFILCGNFSSAPYGKNQVQALKDSLKTLADIICEYPDIHQSSRFVFVPGPEDPGFGSILPRPPLAESITNEFRQRVPFSVFTTNPCRIQYCTQEITVFREDLVNKMCRNCVRFPSSNLAIPNHFVKTILSQGHLTPLPLYVCPVYWAYDYALRVYPVPDLLVIADKYDPFTTTNTECLCINPGSFPRSGFSFKVFYPSNKTVEDSKLQGF
# notes: POLE2, human; Stood in the structure as a subunit of m2; residues 1-527 modelled; source: Hi5 insect cells, purified as a subunit of Pol ε
# Assays:
# [1] = molecular target: B1; experiment: cryo-EM structure; replisome reconstituted on fork DNA with AMP-PNP, isolated on a glycerol gradient with glutaraldehyde and BS3; 3.2 Å overall; a sample without CLASPIN solved at 3.4 Å; conditions: both partners purified
# [2] = molecular target: T1, MCM5; experiment: as above; conditions: both partners purified
Binder,binding result [1],binding result [2]
"PSF1 (natural protein, human, PSF1 (GINS subunit), human; Stood in the structure as a subunit of m1; also called GINS subunit PSF1; source: Hi5 insect cells, purified as a subunit of hsCMG) MFCEKAMELIRELHRAPEGQLPAFNEDGLRQVLEEMKALYEQNQSDVNEAKSGGRSDLIPTIKFRHCSLLRNRRCTVAYLYDRLLRIRALRWEYGSVLPNALRFHMAAEEMEWFNNYKRSLATYMRSLGGDEGLDITQDMKPPKSLYIEVRCLKDYGEFEVDDGTSVLLKKNSQHFLPRWKCEQLIRQGVLEHILS",binds,
B1,,binds
